Consider 1 molecule from US20230406907A1 (SORRENTO THERAPEUTICS, published 2023).

One may read the IC50 as the midpoint of a concentration-inhibition curve. A high value points to weaker potency.

The target of this experiment is SARS-CoV-2 S1 subunit (amino acids 16-685 of SEQ ID NO:1, i.e. SEQ ID NO:4) with a carboxy terminal … (SARS-CoV-2, UniProt P0DTC2 16-685).

B1: antibody S1D2 (fully human recombinant monoclonal IgG1, no Fc mutation) (antibody, V domains shown)
VH: EVQLVESGGGLIQPGGSLRLSCAASGFTVSSNYMSWVRQAPGKGLEWVSIIYPGGSTNYADSVKGRFTISRDNSRNTLYLQMNSLRAEDTAVYYCARELGYYGMDVWGQGTTVTVSS
VL: DIQMTQSPSSVSASVGDRVTITCRASQGISTWLVWYQQKPGKAPNLLIYGASSLQSGVPSRFSGSGSGTDFTLTISSLQPEDFATYYCQQANSFPYTFGQGTKLEIK
In the case of B1, the IC50 was found to be 1.87 nM.
